Results reported in US20220402981A1 (Dana-Farber, published 2022).

How the values were obtained:
DCAF15split = target: T1, DCAF15split (human, UniProt Q66K64 30-264; Q66K64 383-600); assay: crystal structure with E7820
T1 construct: range 30-264;range 383-600; DCAF15 as two fragments in the crystal structures (PDB 6Q0R, 6Q0V, 6Q0W); also called Strep II Avi-DCAF15NTD (residues 30-264)-Strep II Avi-DCAF15CTD (residues 383-600); DCAF15-NTD; not shown: N-terminal Strep II Avi tag

full-length human DCAF15 = target: T2, full-length human DCAF15 (human, UniProt Q66K64 1-600); assay: cryo-EM at ~4.4 Å with E7820
T2 construct: mature; As in the cryo-EM and cross-linking complexes; also called full-length DCAF15

- binding result (DCAF15split): binds
- binding result (full-length human DCAF15): binds
B1: His6-RBM39RRM2 (other)
chain: GSAGPMRLYVGSLHFNITEDMLRGIFEPFGRIESIQLMMDSETGRSKGYGFITFSDSECAKKALEQLNGFELAGRPMKVGHVTERTDA
notes: RBM39RRM2 as in the crystals, cryo-EM and cross-linking complexes; not shown: N-terminal His6 tag
